Measurements from patent EP3505186B1, “NUCLEOPHILIC CATALYSTS FOR OXIME LINKAGE” (Takeda Pharmaceutical Company Limited, priority 2010, dated 2012).

How the values were obtained:
rats = details: long-term dietary treatment of rats; Goodman et al. 1984; cited from earlier work
[1] = Harrison and Jollow 1987; cited from earlier work
[2] = in vitro studies; Bombhard and Herbold 2005; cited from earlier work
[3] = Specific activity of the Prolia conjugate: biological activity by methods known in the art and total protein (Bradford)
Procedure: The free Prolia is removed by means of cation exchange chromatography (CEC). The reaction mixture is diluted with 20 ml Buffer A (50 mM Hepes, pH 6.5) and loaded onto a 20 ml HiPrep SPFF 16/10 column (GE Healthcare, Fairfield, CT) pre-equilibrated with Buffer A. Then the column is eluted with Buffer B (50 mM Hepes, 1 M NaCl, pH 6.5). Free Prolia is eluted by washing the column with 25 % Buffer B and the conjugate at 50 % Buffer B. The conductivity of the conjugate containing fractions is subsequently raised to -190 mS/cm with Buffer C (50 mM Hepes, 5 M NaCl, pH 6.9) and loaded onto a 20 ml HiPrep Butyl FF 16/10 column (GE Healthcare, Fairfield, CT) pre-equilibrated with Buffer D (50 mM Hepes, 3 M NaCl, pH 6.9). Free PSA-reagent is washed out within 5 CV Buffer D. Subsequently, the conjugate is eluted with 100 % Buffer E (50 mM Hepes, pH 6.9). The conjugate containing fractions are concentrated by UF/DF using a 10 kD membrane made of regenerated cellulose (88 cm2, cut-off 10 kD, Millipore). The final diafiltration step is performed against histidine buffer, pH 6.9 containing 150 mM NaCl. The preparation is analytically characterized by measuring total protein (Bradford) and biological activity according to methods known in the art. For the PSA-Prolia conjugate a specific activity of > 50 % in comparison to native Prolia is determined. The conjugate is additionally analytically characterized by Size Exclusion HPLC using a Agilent 1200 HPLC system equipped with a Shodex KW 803 column under conditions as previously described (Kolarich et al, Transfusion 2006;46:1959-77). It is shown that the preparation contains no free Prolia.
The free Prolia is removed by means of cation exchange chromatography (CEC). The reaction mixture is diluted with 20 ml Buffer A (50 mM Hepes, pH 6.5) and loaded onto a 20 ml HiPrep SPFF 16/10 column (GE Healthcare, Fairfield, CT) pre-equilibrated with Buffer A. Then the column is eluted with Buffer B (50 mM Hepes, 1 M NaCl, pH 6.5). Free Prolia is eluted by washing the column with 25 % Buffer B and the conjugate at 5 0% Buffer B. The conductivity of the conjugate containing fractions is subsequently raised to -190 mS/cm with Buffer C (50 mM Hepes, 5 M NaCl, pH 6.9) and loaded onto a 20 ml HiPrep Butyl FF 16/10 column (GE Healthcare, Fairfield, CT) pre-equilibrated with Buffer D (50 mM Hepes, 3 M NaCl, pH 6.9). Free PSA-reagent is washed out within 5 CV Buffer D. Subsequently the conjugate is eluted with 100% Buffer E (50 mM Hepes, pH 6.9). The conjugate containing fractions are concentrated by UF/DF using a 10 kD membrane made of regenerated cellulose (88 cm^2, cut-off 10 kD / Millipore). […] For the PSA-Prolia conjugate a specific activity of > 50 % in comparison to native Prolia is determined. […]

Nc1ccccc1 [aniline]
tumors in the spleen (rats): induce tumors in the spleen | methemoglobinemia [1]: induce methemoglobinemia | chromosome mutations / genotoxic activity [2]: potential to induce chromosome mutations

PEG-Prolia conjugate: Prolia PEGylated with a linear 20 kD aminooxy PEGylation reagent, m-toluidine as catalyst
specific activity in comparison to native Prolia ([3]; Reference Example 44 Method 1, alternative (oxidation, then m-toluidine and 20 kD aminooxy-PEG, 5-fold)): > 50% | specific activity in comparison to native Prolia ([3]; Reference Example 44 Method 3, alternative (simultaneous, 20 kD aminooxy-PEG, 5-fold)): > 50%

PSA-Prolia conjugate: Prolia polysialylated with 20 kD aminooxy-PSA reagent, m-toluidine as catalyst
specific activity in comparison to native Prolia ([3]; Reference Example 30 Method 1, alternative (oxidation, then m-toluidine and 20 kD aminooxy-PSA, 5-fold)): > 50% | specific activity in comparison to native Prolia ([3]; Reference Example 30 Method 3, alternative (simultaneous, 20 kD aminooxy-PSA, 5 fold)): > 50%
